# Source: paper PMC10501187
# Target: GABARAP (UniProt O95166)
# Test: GST-GABARAP pull-down from cell lysate
# Conditions: reference: wild type
binding against the reference (sites S65),binding against the reference (sites T54),Substance
weaker,,ORP8 (from UniProt Q9BZF1) S65A
,weaker,ORP8 (from UniProt Q9BZF1) T54A
